Test [1] concerns cancer cells. Put plainly: ELANE internalization by cancer cells and effect of endocytosis inhibitor. The test is classed as cell-based. As for the experimental part: (§1) FIGS. 1A-1K. ELANE cleaves CD95 to selectively kill cancer cells. (A): Heatmap summary of ELANE's effects on survival, stress, and apoptosis pathways in cancer cells and healthy cells. (B-C): Cancer cells were treated with ELANE (100 nM) and CD95 cleavage was assessed by western blotting using anti-N-terminal (B) or anti-C-terminal antibodies (C). *, lower molecular weight CD95 fragment. (D): Cancer cells or non-cancer cells were transduced to overexpress CD95 proteins, and effects on ELANE-mediated apoptosis were quantified by ANXAS at 30 min. n=2/group. See FIG. 1I for transduction and CD95 over-expression. (E): Cleavage of recombinant human CD95 N-terminal (aa 1-173) or C-terminal (aa 212-335) proteins by ELANE was assessed by SDS-PAGE and Coomassie blue staining. (F): Bands from (E) were digested with trypsin and analyzed by mass spectrometry to identify putative ELANE cleavage sites (i.e., peptides with non-tryptic ends). Major non-tryptic peptides were quantified by ion chromatograms. (G): Schematic of ELANE cleavage sites in CD95. […] (H): Cleavage of recombinant peptides corresponding to aa 214-231 and aa 317-335 in CD95 by ELANE was monitored by mass spectrometry. (I): Cancer cells or non-cancer cells were treated with fluorescein-labeled ELANE for 10 min and uptake was visualized by immunofluorescence. (J): ELANE catalytic activity in cancer cell lysates following exposure to ELANE for 30 mins in the presence and absence of Dynasore (60 μM endocytosis inhibitor). Effect of Dynasore on cancer cell killing capability of ELANE (measured by calcein-AM). n=6/group. (K): Cancer cells or non-cancer cells were transduced to overexpress various CD95 proteins, and cell viability in the absence of ELANE was determined by calcein-AM. n=10/group. *, p<0.05 Student's t-test.

The test system of test [2] is human and murine cancer cells. The test can be described thus: CD95 overexpression, ELANE-mediated apoptosis (ANXA5). The class given is cell-based. To be noted: ELANE 40 nM, ANXA5 at 30 min. As for the experimental part: FIGS. 2A-2D Overexpressing CD95 proteins accelerates cancer cell killing by ELANE. Polycistronic adenoviral vectors were prepared to express the human and mouse CD95 sequences followed by the Encephalomyocarditis virus (EMCV) internal ribosome entry site and dTomato sequence under the control of the cytomegalovirus (CMV) promoter. Human and murine cancer cells or non-cancer cells were transduced to over-express full-length CD95, N-terminal CD95 (human: aa 1-209; mouse: aa 1-204), or C-terminal CD95 (human: aa 212-335; mouse: aa 204-327). (A): Transduction efficiency quantified by dTomato (Left). CD95 levels in dTomato− and dTomato+ cells quantified by geometric mean (MFI) (Middle). ANXA5 levels in dTomato− and dTomato+ cells 30 min after treatment with ELANE (40 nM) (Right). Representative data for A549 cells are shown. (B-C): Quantification of transduction efficiency (B) and relative CD95 overexpression (C) for cancer cells and non-cancer cells. (D): Quantification of ANXA5 levels following ELANE treatment (40 nM, 30 min) for mouse cancer cell lines (E0771, B16F10). *, p<0.05 Student's t-test.
(§2) In vitro cell viability assays. […] Luminescence was measured using a Victor X3 luminometer (PerkinElmer).
(§3) CD95 overexpression studies. Polycistronic adenoviral vectors were prepared to express the human and mouse CD95 sequences followed by the Encephalomyocarditis virus (EMCV) internal ribosome entry site and dTomato sequence under the control of the cytomegalovirus (CMV) promoter (VectorBuilder). Human and murine cancer cells or normal or non-cancer cells were transduced to over-express full-length CD95, N-terminal CD95 (human: aa 1-209; mouse: aa 1-204), C-terminal CD95 (human: aa 212-335; mouse: aa 204-327), or C-terminal CD95 that mimicked ELANE cleavage at site 1 (human: aa 221-335), site 2 (human: aa 212-331), or both sites (aa 221-331). Cancer cells or normal or non-cancer cells were transduced with adenoviruses at an MOI of 50-250 depending on cell type, and expression of dTomato and CD95 (human: 558814; mouse, mouse: 565130, BD Biosciences) were confirmed by flow cytometry. A vector encoding GFP (Vector Builders) was used as a control.

Test [3] relates to cancer cells. Put plainly: CD95 protein overexpression in cancer cells, viability in absence of ELANE (calcein-AM). The test is classed as cell-based, human. To be noted: transient overexpression. As for the experimental part: as §1, §2, §3
Another test concerns MDA-MB-231 cells. Put plainly: Doxycycline-inducible Tet-on expression of C or C1-2 in MDA-MB-231 cells. The test is classed as cell-based, human. To be noted: Tet-on MDA-MB-231, doxycycline 0.2 or 2 μg/mL, 72 h, Calcein AM. As for the experimental part:
FIG. 4 Inducible Expression System. Scheme of doxycycline inducible Tet-on system to express either C (aa. 157-335) or C1-2 (aa. 221-331). C1-2 (DD containing fragment) upon addition of doxycycline (both in vitro and in vivo).
FIG. 5 Confirmation of C1-2 expression and cancer cell selective killing. (A) Tet-on C or C1-2 transduced MDA-MB-231 cells were treated with 2 μg/mL doxycycline (2 μg/mL) for 24 h. Cell lysates were collected for western blot. Confirming the expression of C or C1-2 expression. (B) Tet-on C or C1-2 transduced MDA-MB-231 cells were treated with 0.2 or 2 μg/mL doxycycline for 72 h. Cell viability was measured by Calcein AM. […] (C) Tet-on C1-2 transduced MCF10A cells were treated with 2 μg/mL doxycycline. Cell viability was measured at various time points by Calcein AM.
FIG. 6 In vitro testing MDA-MB-231 cell death post C1-2 induction. (A) Various single colony of Tet-on C1-2 transduced MDA-MB-231 cells were treated with 2 μg/mL doxycycline (2 μg/mL) for 72 h. Cell viability was measured by Calcein AM. Different colonies have different susceptibility of death post C1-2 induction. (B) C1-2 expression of various single colony of Tet-on C1-2 transduced MDA-MB-231 cells post doxycycline treatment were measured by western blot (C), and the level at 24 h was correlated with % death (normalized by full length). […] (C) Immunoblot of C1-2 and full length (FL) CD95 expression for various colony.

The test system of test [4] is human/murine cancer cells. Put plainly: In vitro cell viability of cancer cells (calcein-AM, CASP3, ANXA5). The class given is cell-based. To be noted: catalytic inactivation confirmed.
Source text: Cell lines. The ovarian cancer cell lines—CAOV3, OVCAR3, OVCAR4, OVCAR5, A2780, A2780/CP70, HeyA8, TykNu, SKOV3, ID8, and ID8p53-/- were a gift from Dr. Ernst Lengyel, University of Chicago. The breast cancer cell lines—MDA-MB-231, MDA-MB-231.BM1, MCF-7, M6C, E0771, and E0771.LMB were a gift from Dr. Marsha Rosner, University of Chicago. The colon carcinoma cell line RKO, glioblastoma cancer cell line T98G, osteosarcoma cell lines U-2OS and Saos-2, and the hepatocellular carcinoma cell line HepG2 were a gift from Dr. Kay McLeod, University of Chicago. The lung cancer cell line NCI-H552 was a gift from Dr. Stephanie Huang, University of Chicago, and A549 and LLC1 cells were purchased from ATTC. The melanoma cell lines—B16F10, Mel888, Mel1106, and SK-MEL-28 cells were a gift from Dr. Thomas Gajewski, University of Chicago. The pancreatic cancer cell line PANC1 was a gift from Dr. Yamuna Krishnan, University of Chicago. The leukemia cell line K562 was a gift from Dr. Amittha Wickrema, University of Chicago.
The prostate cancer cell lines—CWR22Rv1, LAPC4, and LNCaP were a gift from Dr. Donald Vander Griend, University of Chicago. The neuroblastoma cell lines—SK-N-BE(2) and NBL-WN cells were a gift from Dr. Lucy Godley, University of Chicago.
Neutrophil media collections. Freshly isolated human or murine neutrophils were plated in serum-free DMEM for 24 h. Conditioned media was collected, spun at 500×g for 5 min, and media protein levels were determined with a Bradford assay (Biorad).
PMN media manipulations. For boiling, PMN media was boiled at 95° C. for 5 min and spun at 15,000×g for 10 min to remove precipitated proteins. For dialysis, PMN media was placed into a Slide-a-Lyzer™ cassette (3.5 kDa cutoff, ThermoFisher Scientific) and dialyzed against 2×4L of PBS at 4° C. for 4 h. For PMSF-inactivation, PMN media was treated with PMSF (1 mM, Sigma) or A1AT (42 nM, Athens Research & Technology) and incubated at room temperature for up to 2 h. Residual PMSF was eliminated with a PD-10 desalting column (GE Healthcare Life). Inhibition of ELANE catalytic activity was confirmed using a chromogenic substrate activity assay (see below). For serum-spiking experiments, human, mouse, or fetal bovine serum (1% or 10%) was added to PMN media prior to or after exposing cancer cells. For immune-depletion studies, ELANE or ECP were immunoprecipitated using anti-ELANE (N2C3, GeneTx) or anti-ECP (MB S2535165, MyBioSource) coupled to Pierce™ Protein A/G Magnetic Beads (ThermoFisher Scientific).
as §2

The test system of test [5] is tumors (MDA-MB-231, A549, MEL888, M1, 4195, E0771, LLC1, B16F10). The test can be described thus: Intra-tumoral treatment of tumor models (xenograft, PDX, syngeneic). Particulars: E0771 TNBC model, IT, 12 μg/day. The test is classed as in vivo, mice. As for the experimental part:
Tumor inoculation and treatment. MDA-MB-231 cells (2×10^6), A549 cells (2×10^6) with Matrix Type 3), or MEL888 cells (2×10^6 with Matrix Type 3) were injected into athymic nude mice (Charles River); M1 or 4195 cells (50,000) were injected into NOD.SCID mice (JAX); and E0771 cells (0.5×10^6), LLC1 cells (0.5×10^6), or B16F10 cells (1×10^6), were injected into C57BL/6 mice (JAX). For TNBC models (MDA-MB-231, E0771, M1, 4195), cells were injected into the 4th mammary fat pad of the right ventral side. For all other models (A549, LLC1, MEL888, B16F10), cells were injected into the flank. Once tumors reached ˜100 mm^3, ELANE or PMSF-ELANE (11.6 μg/100 μL), or neutrophil medias or HSA (50 μg/100 μL) were delivered IT once/day for 5 days. Tumor volume was assessed by calipers, and experiments were terminated when tumor volume in control mice reached >1000 mm^3.
Tumor immunohistochemistry. Tumors were fixed in 4% paraformaldehyde in PBS for 24 h, embedded in paraffin blocks, and sectioned (5 μm). Slides were stained with cCASP3 (9661) and cPARP (9625) antibodies from Cell Signaling Technology. Signals were developed using the VECTASTAIN ABC kit (Vector Laboratories) or fluorescently-labeled secondary antibodies (melanoma models). For the TUNEL assay, staining was performed with the DeadEnd™ colorimetric or fluorometric TUNEL systems (Promega). Cell nuclei were labeled with haematoxylin or Hoechst 33342 (ThermoFisher Scientific). Images were obtained with a Nikon Eclipse Ti2 microscope and analyzed using NIS-Elements software.

In the case of `O=C(N/N=C/c1ccc(O)c(O)c1)c1cc2ccccc2cc1O` [Dynasore], in the test with cancer cells [1] (Dynasore), the “effect on PMN media-mediated killing” value is on record as “protected cancer cells from PMN media-mediated killing”. Also, in the test with cancer cells [1] (Dynasore 60 μM), the “effect on ELANE uptake” value was “attenuated ELANE uptake” and the “effect on ELANE-induced apoptosis of cancer cells” value is “protected cancer cells from apoptosis”.

B1: C peptide: C-terminal CD95 peptide containing both cleavage sites (aa. 212-335); Tet-on C printed as aa. 157-335 (protein)
chain: SPTLNPETVAINLSDVDLSKYITTIAGVMTLSQVKGFVRKNGVNEAKIDEIKNDNVQDTAEQKVQLLRNWHQLHGKKEAYDTLIKDLKKANLCTLAEKIQTIILKDITSDSENSNFRNEIQSLV
As for B1, the “effect of overexpression on ELANE-mediated killing” value in test [2] was “accelerated ELANE-mediated killing in human cancer cells”; in test [2] (listed as aa. 212-335 of SEQ ID NO:1) it was “accelerated ELANE-mediated killing in both human and murine cancer cells”. Also, the “cancer cell death/toxicity on expression in the absence of ELANE” value with cancer cells [3] is “not toxic”. Besides, the “cell death/apoptosis on doxycycline-induced expression” value is recorded as “did not” in the test on MDA-MB-231 cells and “not C caused MDA-MB-231 cell death” with MDA-MB-231 cells (listed as C).

B2: PMSF-ELANE: ELANE inactivated with PMSF (or A1AT) (protein, UniProt P08246 30-267, looked up)
Neutrophil elastase: IVGGRRARPHAWPFMVSLQLRGGHFCGATLIAPNFVMSAAHCVANVNVRAVRVVLGAHNLSRREPTRQVFAVQRIFENGYDPVNLLNDIVILQLNGSATINANVQVAQLPAQGRRLGNGVQCLAMGWGLLGRNRGIASVLQELNVTVVTSLCRRSNVCTLVRGRQAGVCFGDSGSPLVCNGLIHGIASFVRGGCASGLYPDAFAPVAQFVNWIDSIIQRSEDNPCPHPRDPDPASRTH
modifications: PMSF-inactivated
Turning to B2, the “cancer cell killing after inactivation with PMSF or A1AT” value in test [4] is “could no longer kill cancer cells”. Also, the “therapeutic benefit, dose finding” value in test [5] is “did not produce unexpected worsening”.

B3: fluorescein-labeled ELANE: fluorescein-labeled ELANE used for uptake (protein, UniProt P08246 30-267, looked up)
Neutrophil elastase: IVGGRRARPHAWPFMVSLQLRGGHFCGATLIAPNFVMSAAHCVANVNVRAVRVVLGAHNLSRREPTRQVFAVQRIFENGYDPVNLLNDIVILQLNGSATINANVQVAQLPAQGRRLGNGVQCLAMGWGLLGRNRGIASVLQELNVTVVTSLCRRSNVCTLVRGRQAGVCFGDSGSPLVCNGLIHGIASFVRGGCASGLYPDAFAPVAQFVNWIDSIIQRSEDNPCPHPRDPDPASRTH
modifications: fluorescein label
notes: fluorescein-labeled ELANE used for uptake
On to B3, for which the “uptake by cancer cells” value with cancer cells [1] (10 min, immunofluorescence) is reported as “rapidly internalized”.

Values taken from patent US12611443B2, “Methods and compositions related to therapeutic peptides for cancer therapy” (THE UNIVERSITY OF CHICAGO, priority 2018, dated 2026).
